Two proteins from patent US20020146805 can be followed below.

Data set [1] concerns the target T1, Meo-Suc-Ala-Ala-Pro-Val-pNA.
T1 chain: AAPV

In a further data set the target is T2, Suc-Ala-Ala-Pro-Phe-pNA.
T2 chain: AAPF

The next data set has as its target T3, H-D-Lys(CBO)-Pro-Arg-pNA.
T3 chain: KPR

A further data set has as its target T4, H-D-Pro-HHT-Arg-pNA.
T4 chain: PXR

B1: PFEK-protease T-6xHIS zymogen (protein)
chain: MDSKGSSQKSRLLLLLVVSNLLLCQGVVSDYKDDDDVDAAALAAPFDDDDKIVGGYALEEGEWPWQVSIQRNGSHFCGGSLIAEQWVLTAAHCFRNTSETSLYQVLLGARQLVQPGPHAMYARVRQVESNPLYQGTASSADVALVELEAPVPFTNYILPVCLPDPSVIFETGMNCWVTGWGSPSEEDLLPEPRILQKLAVPIIDTPKCNLLYSKDTEFGYQPKTIKNDMLCAGFEEGKKDACKGDSGGPLVCLVGQSWLQAGVISWGEGCARQNRPGVYIRVTAHHNWIHRIIPKLQFQPARLGGQKSRHHHHHH
For the protein B1, the chromogenic amidolytic activity result (in data set [1]; in the data set with Suc-Ala-Ala-Pro-Phe-pNA; with H-D-Lys(CBO)-Pro-Arg-pNA; with H-D-Pro-HHT-Arg-pNA) was “No measurable chromogenic amidolytic activity was detected” in each case.

B2: activated protease T-6xHIS (protein)
chain: B1 chain
As to B2, the Specific Activity (amidolytic, release of pNA) (nmole pNA produced/min/ug protein) in the data set with H-D-Lys(CBO)-Pro-Arg-pNA was determined as 0.057; with H-D-Pro-HHT-Arg-pNA, 0.01.
